Consider twelve molecules from patent publication US20230106511A1, “PBP3 BINDING BICYCLIC PEPTIDE LIGANDS” (priority 2020, published 2023).

One experiment has as its target PBP3 (E. coli) (Escherichia coli, UniProt P0AD68). Briefly: Fluorescence polarisation direct binding assay. Conditions: direct binding to PBP 3 (E. coli). As to the method:
Fluorescent peptides at 10 mM in DMSO were diluted to 2.5 nM in binding buffer (10 mM HEPES, pH8, 300 mM NaCl, 2% glycerol). A two-fold dilution series of PBP protein was then prepared across 12 wells in binding buffer, with the highest concentration being 21 μM, and the lowest concentration being 17 nM.
10 μl diluted fluorescent peptide (2.5 nM) was added into 12 wells of a 384-Well NBS™ Low Volume Microplate (Fisher Scientific). 10 μl PBP dilution series was then added to the wells containing the fluorescent peptide, and 5 μl binding buffer was added to bring the total volume to 25 μl and the final concentration of peptide tracer to 1 nM. A control well lacking PBP protein was prepared with a final peptide concentration of 1 nM to a final volume of 25 μl in binding buffer. Fluorescence polarisation was measured every 5 minutes for a period of one hour at room temperature. The gain and focal height were optimised using the control well lacking protein.
Data were analysed in GraphPad software to derive values for the dissociation constant. Experiments were repeated at least three times.
Certain peptide ligands of the invention were tested in the above mentioned binding assay and the results are shown in Table 1 for binding to the indicated PBP: […]
A general note: Fluorescence polarisation rises when a labelled molecule tumbles more slowly, as on binding a larger partner.

In another experiment the target is unmodified PBP protein. Briefly: Fluorescence polarisation competition binding assay (BODIPY labelled penicillin tracer). Conditions: competition with BODIPY labelled penicillin tracer. On the procedure: Fluorescence polarisation competition was carried out using a BODIPY labelled Penicillin tracer and unlabelled peptides, for competition to an unmodified PBP protein.
Fluorescent BODIPY labelled penicillin at 5 mM in DMSO were diluted to 6.25 nM in binding buffer (10 mM HEPES, pH8, 300 mM NaCl, 2% glycerol). Unmodified PBP were diluted to 2 μM in binding buffer. A two-fold dilution series of unmodified peptide was prepared across 12 wells in binding buffer, with the highest final well concentration being 60 μM, and the lowest concentration being […]. 5 μl of the unmodified peptide dilution series or Carbenicillin were added to 12 wells of a 384-Well NBS™ Low Volume Microplate (Fisher Scientific). 10 μl diluted fluorescent BODIPY labelled penicillin (6.25 nM) were then added to the 12 wells containing the unmodified peptide dilutions. 10 μl of unmodified PBP (2 μM) were then added to the 12 wells containing unmodified peptide and fluorescent BODIPY labelled penicillin to bring the total volume to 25 μl, and the final concentration of Fluorescent BODIPY labelled penicillin to 2.5 nM and unmodified PBP to 800 nM. […]
Fluorescence polarisation was measured every 5 minutes for a period of one hour at room temperature. […]
Data were analysed in GraphPad software to derive values for the inhibition constant. […]

In experiment [1] the target is T1, PBP3 of E. coli (E. coli), P0AD68.
T1 chain: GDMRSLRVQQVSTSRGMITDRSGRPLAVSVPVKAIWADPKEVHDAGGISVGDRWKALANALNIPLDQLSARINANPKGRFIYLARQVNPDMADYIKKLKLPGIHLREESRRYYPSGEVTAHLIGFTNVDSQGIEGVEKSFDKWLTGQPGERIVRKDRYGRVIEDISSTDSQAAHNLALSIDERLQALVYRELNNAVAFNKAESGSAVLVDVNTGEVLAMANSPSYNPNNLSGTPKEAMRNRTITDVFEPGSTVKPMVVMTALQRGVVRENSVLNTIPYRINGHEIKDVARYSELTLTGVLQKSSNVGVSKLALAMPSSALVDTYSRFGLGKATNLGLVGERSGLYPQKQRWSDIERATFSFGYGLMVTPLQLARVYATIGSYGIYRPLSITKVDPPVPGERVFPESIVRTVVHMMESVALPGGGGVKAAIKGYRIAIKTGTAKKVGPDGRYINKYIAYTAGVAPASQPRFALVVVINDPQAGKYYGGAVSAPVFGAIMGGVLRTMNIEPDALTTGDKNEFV
In words: FP competition, tracer BCY12820.

Experiment [2] has the same target. Briefly: fluorescence polarisation competition, BODIPY-labelled penicillin as tracer.

For orientation: Kd means the equilibrium constant for the complex coming apart. A lower Kd goes with higher affinity. As usually defined, the Ki is a measure of affinity in units of concentration, obtained from inhibition or displacement. The low end stands for tighter binding, the high end for weaker binding.

PBP3 (E. coli), sequence (P0AD68 1-577): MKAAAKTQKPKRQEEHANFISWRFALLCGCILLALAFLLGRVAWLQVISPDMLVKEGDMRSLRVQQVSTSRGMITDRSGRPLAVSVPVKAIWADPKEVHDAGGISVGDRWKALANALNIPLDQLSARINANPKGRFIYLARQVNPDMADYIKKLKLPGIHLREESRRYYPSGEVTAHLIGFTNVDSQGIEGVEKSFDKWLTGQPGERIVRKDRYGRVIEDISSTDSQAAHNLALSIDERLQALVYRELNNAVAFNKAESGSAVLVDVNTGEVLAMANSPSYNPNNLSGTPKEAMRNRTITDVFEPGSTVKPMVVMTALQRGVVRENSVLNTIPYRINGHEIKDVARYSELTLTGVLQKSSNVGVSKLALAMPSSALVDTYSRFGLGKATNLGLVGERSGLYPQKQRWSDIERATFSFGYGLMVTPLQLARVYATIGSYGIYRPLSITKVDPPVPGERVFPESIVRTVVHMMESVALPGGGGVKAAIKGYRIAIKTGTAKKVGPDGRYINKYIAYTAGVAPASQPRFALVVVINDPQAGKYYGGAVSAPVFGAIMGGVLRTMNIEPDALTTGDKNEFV

Consider `Cc1cc(C)n2c1C=C1C=CC(CCC(=O)Nc3ccc(OCC(=O)N[C@@H]4C(=O)N5[C@@H]4SC(C)(C)[C@@H]5C(=O)O)cc3)=[N+]1[B-]2(F)F` [Bocillin], for which binding at PBP3 (E. coli) was characterised by a dissociation constant (Kd) of 440 nM.

“A-CiLENCiiYYVPYYGYACiii-A, TATA bicyclic peptide [BCY12123, A-(SEQ ID NO: 3)-A]” displayed a Ki at unmodified PBP protein of 1390 nM.

B1: BCY13768 (peptide)
peptide: ACVYPKCPWVEGCA
modifications: not checked
In the case of B1, in experiment [1], the Ki is less than 3820 nM.

B2: BCY13764 (peptide)
peptide: ACWFPNCPWVEGCA
modifications: not checked
B2 returned a Ki in experiment [1] of less than 4080 nM.

B3: BCY13656 (peptide)
peptide: ACAFPKCPWVEGCA
modifications: not checked
In experiment [1], B3 registered a Ki of 5 nM.

B4: BCY12742 (peptide)
peptide: CSFPKCPWVEGC
modifications: not checked
Turning to B4, the Ki in experiment [1] came out at 3 nM.

B5: BCY13419 (peptide)
peptide: ACSFPKCPWVEKCA
modifications: not checked
Molecule B5 returned a Ki in experiment [1] of 40 nM.

B6: BCY13949 (peptide)
peptide: CSFPKCPWVEGC
modifications: not checked
Molecule B6 came in with a Ki in experiment [1] of 45400 nM.

B7: BCY12123 (peptide)
peptide: ACLENCYYVPYYGYACA
modifications: not checked
B7: in experiment [2], the Ki came out at 1390 nM.

B8: BCY13226 (peptide)
peptide: ACQFPVCPWVEGCA
modifications: not checked
On to B8, for which the Ki in experiment [1] is 20 nM.

B9: BCY13664 (peptide)
peptide: ACSFPKCPWVEACA
modifications: not checked
Molecule B9 gave a Ki in experiment [1] of 30 nM.

B10: BCY13659 (peptide)
peptide: ACSFPACPWVEGCA
modifications: not checked
Consider B10, for which the Ki in experiment [1] stood at 4 nM.
